Molecular target: HLA-A2 molecule (a product of the HLA-A*0201 gene) (human), A*02:0

WMACHSAAF (modifications not checked) [SEQ ID NO: 30 peptide]
-log Kd (Binding Experiment Data): 5.79 -log Kd

IFLARSALI (modifications not checked) [SEQ ID NO: 35 peptide]
-log Kd (Binding Experiment Data): 5.94 -log Kd

YLEEHPSAG (modifications not checked) [SEQ ID NO: 21 peptide]
-log Kd (Binding Experiment Data): 5.08 -log Kd

YLEENPSAG (modifications not checked) [SEQ ID NO: 26 peptide]
-log Kd (Binding Experiment Data): 4.9 -log Kd

Reference: US20090023895A1
